# Measured values published in patent US20210380703A1 (RIGEL PHARMACEUTICALS, published 2021).
# Changes are numbered by the printed parent chain.
# B1: 376_B06 (antibody, V domains shown)
# VH: EVQLLESGGGLVQPGGSLRLSCAASGFTFSSYSMNWVRQAPGKGLEWVAGINYNSGYKGYADSVKGRFTISRDNSKNTLYLQMNSLRAEDTAVYYCARSATWHDTHLDYWGQGTLVTVSS
# VL: DIQMTQSPSSLSASVGDRVTITCRASQSILTYLNWYQQKPGKAPKLLIYAATSRASGVPSRFSGSGSGTDFTLTISSLQPEDFATYYCQQSYDLPLTFGGGTKVEIK
# B2: 366_A05 (antibody, V domains shown)
# VH: B1 VH with K58T
# VL: B1 VL with L33V, L47V, R54L, D93N, L94T
# B3: 365_D05 (antibody, V domains shown)
# VH: B1 VH with S30D, S55G, K58T, G59S
# VL: B1 VL with L33V, D93N, L94S
# B4: 365_F07 (antibody, V domains shown)
# VH: B1 VH with A49S, G50N, S55G, G59S, H106A
# VL: B1 VL with T31S, L33V, L47V
# B5: 374_E05 (antibody, V domains shown)
# VH: B1 VH with S55G, K58T, G59S, T101N, H106A
# VL: B1 VL with T31S, Y32F, L33V, L47V, D93N
# B6: 376_C06 (antibody, V domains shown)
# VH: B1 VH with S33G, S55G, K58T, G59S, H106A
# VL: B1 VL with T31S, L47V, L94S
# B7: 373_F08 (antibody, V domains shown)
# VH: B1 VH with A49S, S55G, K58T, G59S, S99G, T101N, H106A
# VL: B1 VL with L94T
# B8: 371_F09 (antibody, V domains shown)
# VH: B1 VH with S55G, K58T, G59S, S99G
# VL: B1 VL with L94N
# B9: 376_F06 (antibody, V domains shown)
# VH: B1 VH with S33G, A49S, S55G, K58T, S99G, T101N
# VL: B1 VL with L33V, L47V, D93E, L94T
# B10: 373_G08 (antibody, V domains shown)
# VH: B1 VH with S30D, A49S, G50N, S55G, K58T, G59S, S99G, T101N, H106A
# VL: B1 VL with R54L, L94S
# B11: 374_C12 (antibody, V domains shown)
# VH: B1 VH with S55G, G59S, S99G, T101N, H106A
# VL: B1 VL with L47V, Y92D, D93N, L94S
# B12: 370_C07 (antibody, V domains shown)
# VH: B1 VH with G50N, S55G, G59S, S99G
# VL: B1 VL with T31S, A55H, D93E, L94S
# B13: 375_A12 (antibody, V domains shown)
# VH: B1 VH with A49S, G59S, S99G, T101N, H106A
# VL: B1 VL with T31S, L47V, A51V, D93E, L94T
# B14: 375_H05 (antibody, V domains shown)
# VH: B1 VH with A49S, G50N, S55G, K58T, S99G, T101N, H106A
# VL: B1 VL with T31S, L33V, L94T
# B15: 369_H08 (antibody, V domains shown)
# VH: B1 VH with G59S, S99G
# VL: B1 VL with T31S, L33V, L47V, R54L, D93E, L94S
# B16: 373_H03 (antibody, V domains shown)
# VH: B1 VH with A49S, G59S, S99G, T101N, H106A
# VL: B1 VL with T31S, A51T, D93E, L94N
# B17: 374_C01 (antibody, V domains shown)
# VH: B1 VH with S30D, S33G, A49S, G59S, S99G, T101N, H106A
# VL: B1 VL with D93E, L94T
# B18: 374_G08 (antibody, V domains shown)
# VH: B1 VH with S30D, A49S, S55G, K58T, G59S, S99G, T101N, H106A
# VL: B1 VL with L33V, L47V, L94S
# B19: 376_H11 (antibody, V domains shown)
# VH: B1 VH with S30D, A49S, G50N, S55G, K58T, S99G, T101N, H106A
# VL: B1 VL with L30S, T31R, A51V, R54L, D93E, L94S
# B20: 374_C09 (antibody, V domains shown)
# VH: B1 VH with S30D, S33G, A49S, G50S, S55G, S99G, T101N
# VL: B1 VL with L30V, T31S, L47V, D93E
# B21: 367_A02 (antibody, V domains shown)
# VH: B1 VH with S30D, S33G, A49S, G50S, S99G
# VL: B1 VL with L30I, T31S, A51V, L94T
# B22: 370_D03 (antibody, V domains shown)
# VH: B1 VH with G50S, S55G, K58T, G59S, S99G
# VL: B1 VL with L30I
# B23: 376_F01 (antibody, V domains shown)
# VH: B1 VH with S31D, S55G, G59S, S99G, T101N, H106A
# VL: not shown
# B24: 369_F09 (antibody, V domains shown)
# VH: B1 VH with S33G, N35H, S55G, K58T, G59S, S99G
# VL: B1 VL with L33V, L94S
# B25: 375_G05 (antibody, V domains shown)
# VH: B1 VH with S55G, K58T, G59S, S99G, T101N, H106A
# VL: B1 VL with L30V, T31S, A51V, L94S
# B26: 370_E04 (antibody, V domains shown)
# VH: B1 VH with G50N, S55G, S99G
# VL: B1 VL with A51V, R54L, A55H, D93E, L94T
# B27: 371_E12 (antibody, V domains shown)
# VH: B1 VH with S30D, A49S, G59S, S99G
# VL: B1 VL with T31S, R54L, L94T
# B28: 374_B03 (antibody, V domains shown)
# VH: B1 VH with S30D, A49S, S55G, K58T, G59S, S99G, T101N, H106A
# VL: B1 VL with L47V, L94S
# B29: 370_F12 (antibody, V domains shown)
# VH: B1 VH with S31D, G50N, S55G, K58T, S99G
# VL: B1 VL with T31S, T52S, R54L, A55Q, L94S
# B30: 369_H12 (antibody, V domains shown)
# VH: B1 VH with S55G, G59S, S99G
# VL: B1 VL with L30V, L33V, L47V, L94S
# B31: 368_G03 (antibody, V domains shown)
# VH: B1 VH with A49S, K58T, G59S, S99G, H106A
# VL: B1 VL with T31S, L47V, L94T
# B32: 376_C08 (antibody, V domains shown)
# VH: B1 VH with S30D, K58T, S99G, T101N
# VL: not shown
# B33: 370_C06 (antibody, V domains shown)
# VH: B1 VH with G50N, S55G, G59S, S99G
# VL: B1 VL with L33V, T52S, R54L, A55Q, D93S, L94T
# B34: 373_F07 (antibody, V domains shown)
# VH: B1 VH with A49S, G59S, S99G
# VL: B1 VL with T31S, R54L, D93E, L94T
# B35: 375_A07 (antibody, V domains shown)
# VH: B1 VH with S30D, A49S, G50S, K58T, S99G, T101N
# VL: B1 VL with L94T
# B36: 369_C12 (antibody, V domains shown)
# VH: B1 VH with S33G, G50N, S55G, S99G
# VL: B1 VL with A55H, L94T
# B37: 374_D05 (antibody, V domains shown)
# VH: B1 VH with S30D, A49S, K58T, S99G, T101N
# VL: B1 VL with L94T
# B38: 376_H01 (antibody, V domains shown)
# VH: B1 VH with S31D, S55G, S99G, T101N, H106A
# VL: B1 VL with D93S, L94T
# B39: 371_B01 (antibody, V domains shown)
# VH: B1 VH with S30D, A49S, G50N, K58T, S99G
# VL: B1 VL with T31S, L33V, R54L
# B40: 372_B09 (antibody, V domains shown)
# VH: B1 VH with A49S, G50S, K58T, G59S, S99G
# VL: B1 VL with D93E, L94T
# B41: 375_F02 (antibody, V domains shown)
# VH: B1 VH with G50S, K58T, G59S, S99G, T101N
# VL: B1 VL with T31S, L94S
# B42: 375_E10 (antibody, V domains shown)
# VH: B1 VH with A49S, S55G, K58T, G59S, S99G, T101N, H106A
# VL: B1 VL with T31S, L47V, L94N
# B43: 373_C07 (antibody, V domains shown)
# VH: B1 VH with S30D, K58T, G59S, S99G, T101N
# VL: B1 VL with L47V, D93E, L94T
# B44: 374_D10 (antibody, V domains shown)
# VH: B1 VH with S33G, N35H, G50S, S55G, K58T, G59S, S99G, T101N
# VL: B1 VL with L33V, L94N
# Biological target: Human ACVR2A (on cells) (human, UniProt P27037 20-513)
# Sequence (P27037 20-513): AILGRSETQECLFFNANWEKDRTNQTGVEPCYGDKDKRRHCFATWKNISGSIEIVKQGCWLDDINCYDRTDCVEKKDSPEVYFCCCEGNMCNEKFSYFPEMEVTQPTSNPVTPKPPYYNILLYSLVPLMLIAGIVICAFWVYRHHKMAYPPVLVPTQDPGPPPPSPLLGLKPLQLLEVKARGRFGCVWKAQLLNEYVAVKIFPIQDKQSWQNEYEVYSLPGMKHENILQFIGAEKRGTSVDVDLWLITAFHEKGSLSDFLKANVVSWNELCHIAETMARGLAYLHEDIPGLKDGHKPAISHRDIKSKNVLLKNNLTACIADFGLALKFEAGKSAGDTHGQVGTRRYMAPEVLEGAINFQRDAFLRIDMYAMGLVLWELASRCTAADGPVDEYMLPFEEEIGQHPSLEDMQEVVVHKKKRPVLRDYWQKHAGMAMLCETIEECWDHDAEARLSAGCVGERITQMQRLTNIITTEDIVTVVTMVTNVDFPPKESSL
# Assay: cell-based or functional assay
row,"Phospho-SMAD3 Human Skeletal Muscle GDF8 (AlphaLisa, primary human myotubes)",Binder
1,0.0042,B1
2,0.0244,B2
3,0.0209,B3
4,0.011,B4

# Biological target: ACVR2A on primary human myotubes (human, UniProt P27037 20-513)
# Assay: cell-based or functional assay
# Target sequence in this assay (P27037 20-513): as above
row,Phospho-SMAD3 Human Skeletal Muscle GDF8,Binder
1,0.0497,B5
2,0.0107,B6

# Biological target: ACVR2A on primary human myotubes (human, UniProt P27037 20-513)
# Assay: cell-based or functional assay
# Remark: another data set of the same source
# Target sequence in this assay (P27037 20-513): as above
row,Phospho-SMAD3 Human Skeletal Muscle GDF8,Binder
1,0.005,B7
2,0.0311,B8
3,0.0544,B9
4,0.0057,B10
5,0.027,B11
6,0.0044,B12
7,0.0469,B13
8,0.0346,B14
9,0.0308,B15
10,0.0129,B16
11,1.11,B17
12,0.034,B18
13,0.0042,B19
14,0.189,B20
15,0.159,B21
16,0.0165,B22
17,0.595,B23
18,0.0325,B24
19,0.0052,B25

row,Phospho-SMAD3 Human Skeletal Muscle GDF8,Binder
1,0.0136,B26
2,0.0374,B27
3,0.027,B28
4,0.0066,B29
5,0.0303,B30
6,0.299,B31
7,0.0605,B32
8,0.0111,B33
9,0.0069,B34
10,0.014,B35
11,0.0094,B36
12,0.0177,B37
13,0.0562,B38
14,0.0076,B39
15,0.0182,B40
16,0.0076,B41
17,0.0091,B42
18,0.0048,B43
19,0.126,B44
